Laboratory results published in the supplement of paper PMC10126150.
± gives the standard deviation of the averaged measurements.

test system: ATP; test: switch fluorescence ratio, 500 uM ATP over buffer (Cy3 cluster intensity, sum of 5 cycles each) (fold (ratio)); higher = stronger signal-on switching upon ATP binding; sequences stand for … in TCGTCGGCAGCGTCAGATGTGTATAAGAGACAGTTTTTTTTTTTTTTTTTTTTTTTTT…TC; details: aptamer strand: ATP DNA aptamer (quencher-CACCTGGGGGAGTATTGCGGAGGAAGG + anchor), 100 nM annealed; ATP concentration: 500 uM
Procedure, shortened: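 Exposure to 500 uM ATP lasted 15 min at 22 °C before imaging, and a selection-buffer image was taken beforehand, for Cy3-labelled switching-strand clusters on a modified Illumina MiSeq flow-cell annealed to 100 nM quencher-labelled ATP aptamer. Five buffer/ATP cycles were run with NaOH stripping and re-annealing between them. The fluorescence ratio per cluster is summed target-cycle over summed buffer-cycle Cy3 intensity, averaged per switch-domain sequence. Clusters outside 100-1000 RFU were excluded.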

| Sequence | switch fluorescence ratio |
| --- | --- |
| AGGGTCTGTA | 0.939 ± 0.015 |
| CATGGGAGTT | 0.978 ± 0.025 |
| CAGGGGTATC | 1.01 ± 0.033 |
| CAGAGTTAAT | 0.993 ± 0.045 |
| TGCTCCAAGT | 1.03 ± 0.013 |
| ATGCTATACT | 1.6 ± 0.022 |
| ACGAGTTTGG | 0.963 ± 0.036 |
| CTGAGTTTAT | 0.997 ± 0.023 |
| TAGCGAAAAA | 0.992 ± 0.016 |
| GATTGTAGGC | 1.03 ± 0.011 |
| CAGATGCGGA | 0.984 ± 0.017 |
| TACAGCTTTT | 1.01 ± 0.031 |
| GACCGGGCTC | 0.97643 ± 0.00079 |
| GCTCTCAGGT | 1.12 ± 0.043 |
| AGAGAGCAAG | 1.07 ± 0.043 |
| CGTTTGATGG | 0.9807 ± 0.0047 |
| CAAAAGCCTA | 0.974 ± 0.053 |
| AGTGGGCAGG | 1.04 ± 0.02 |
| TCACGGTGCT | 1.15 ± 0.19 |
| ACATGTCTGA | 0.9991 ± 0.0024 |
| GTGAAGGGTT | 0.993 ± 0.039 |
| CGTTGGTTCA | 1 ± 0.023 |
| GGATTGTTGG | 1.008 ± 0.0033 |
| AACACAAGGT | 1.02 ± 0.017 |
| AAGGGAATAA | 1.11 ± 0.11 |
| GCCACCGTTT | 1.06 ± 0.021 |

| Sequence | switch fluorescence ratio |
| --- | --- |
| GTTTAGACGT | 1.01 ± 0.011 |
| TGGGGGTGGA | 1.01 ± 0.046 |
| TATGATGGGG | 0.963 ± 0.035 |
| AACCACTGGG | 1.17 ± 0.13 |
| GTCTTTAAGG | 0.964 ± 0.036 |
| AGAGGTTGCA | 0.994 ± 0.032 |
| TGGTATGTAG | 1.02 ± 0.031 |
| TTCGACGGTT | 1.03 ± 0.033 |
| AAATATGACT | 1.06 ± 0.058 |
| TCTTGCTCGT | 1.02 ± 0.0014 |
| TGGGATAAGT | 1.01 ± 0.018 |
| CCATGCACTG | 1.017 ± 0.0028 |
| GCGACAGGGT | 1.023 ± 0.0055 |
| TTTGAGGGGT | 1.03 ± 0.065 |
| ACTTAAAATG | 1.06 ± 0.082 |
| GGGGGCAAGA | 0.999 ± 0.06 |
| ATATGTCGCT | 1.01 ± 0.026 |
| ATTGTTCCGT | 1.02 ± 0.021 |
| CTGCATGGTT | 1.01 ± 0.016 |
| GATTGATAGG | 0.99961 ± 0.00019 |
| CTATGCTCAC | 1.45 ± 0.041 |
| TTTTCAGGGT | 1.01 ± 0.025 |
| TTTAATATGC | 1.14 ± 0.23 |
| GGGGGGGGCC | 0.998 ± 0.053 |
| GGAGTTAATT | 1.02 ± 0.013 |
| CGGGGGGTTG | 0.984 ± 0.033 |

| Sequence | switch fluorescence ratio |
| --- | --- |
| AAGGTTACGC | 1.05 ± 0.024 |
| GGCCAAGGTG | 2.05 ± 0.42 |
| ATTATTAATG | 0.9917 ± 0.008 |
| AAGTCCTTGT | 1.02 ± 0.013 |
| AGGGGGGACA | 1.02 ± 0.084 |
| GTATTCATTT | 0.982 ± 0.036 |
| TTTAGCAACA | 1.04 ± 0.047 |
| AGATTTAAAG | 0.98 ± 0.034 |
| GATGATGTGT | 1.02 ± 0.031 |
| CTAGAGGCGA | 1.03 ± 0.026 |
| TATAAGTGAT | 1.17 ± 0.26 |
| GGAGGGTTTT | 1.01 ± 0.035 |
| TGCAGGTTGG | 1.03 ± 0.036 |
| GTAAGCCCGC | 1 ± 0.053 |
| TCTTTGGACT | 1.002 ± 0.0032 |
| TGAATAGGGT | 1.03 ± 0.073 |
| TTTGGGTGGG | 0.985 ± 0.041 |
| TAGTCATATC | 1.01 ± 0.032 |
| GACCGGGAGC | 0.995 ± 0.011 |
| TTGCTGGATT | 1 ± 0.033 |
| GCCGTAGACC | 0.9994 ± 0.0092 |
| TGGAGGCTTT | 1.009 ± 0.0073 |
| TGCAGGGATC | 1.03 ± 0.017 |
| TCGGGGTTCA | 1.04 ± 0.03 |
| CGTTGGTGTC | 0.9921 ± 0.0085 |
| TTTGTCTGTG | 0.983 ± 0.03 |

| Sequence | switch fluorescence ratio |
| --- | --- |
| AAGAAGAGGA | 1 ± 0.011 |
| GGGGCTTAAG | 1.02 ± 0.035 |
| CTGCGGGGGA | 1.03 ± 0.037 |
| GCATTAGGGA | 0.989 ± 0.024 |
| TTGGGAAGAT | 0.981 ± 0.018 |
| TTTGGGAAAG | 0.978 ± 0.032 |
| TAGCGGCGGC | 1.01 ± 0.016 |
| AAGATGGGGT | 0.991 ± 0.017 |
| TCAATAGGTT | 1.01 ± 0.024 |
| CGCGGGGTGT | 1.05 ± 0.03 |
| TCATACCGTA | 1.09 ± 0.022 |
| AAATGGGTTC | 0.9874 ± 0.0083 |
| CACGGTATTT | 1.19 ± 0.067 |
| CGAAAAATAG | 0.985 ± 0.043 |
| CGAAAGTAGC | 1.01 ± 0.013 |
| GTTGGTTTGT | 0.986 ± 0.019 |
| TGCTTCTTTG | 0.979 ± 0.011 |
| TCCAATCATG | 0.9765 ± 0.0095 |
| CATTATGTGC | 0.981 ± 0.027 |
| TCAAGGCCGG | 1.02 ± 0.035 |
| CTTAGCCTCA | 0.981 ± 0.034 |
| GTAGAAATTC | 1.24 ± 0.048 |
| AACGAATTAC | 1.79 ± 0.16 |
| TCCAAGGGTA | 0.997 ± 0.025 |
| AGAAATGAAT | 1.04 ± 0.024 |
| AAAAATCGAA | 1.02 ± 0.05 |

| Sequence | switch fluorescence ratio |
| --- | --- |
| GAACACGGCG | 1 ± 0.05 |
| ATATTTTTTG | 0.978 ± 0.024 |
| GCGATCAAGG | 1.02 ± 0.012 |
| TCTGGGAAAA | 0.918 ± 0.037 |
| TTTGGAGCAG | 1.14 ± 0.13 |
| CTTTTACCAA | 0.992 ± 0.046 |
| CTTGAATGTC | 1.05 ± 0.054 |
| AAGATTTCGT | 1 ± 0.044 |
| CAATGACACT | 1.04 ± 0.044 |
| TTTTGTTCAC | 1.01 ± 0.017 |
| TTTATGAGCG | 0.973 ± 0.028 |
| GGGGTTAAAC | 1.04 ± 0.034 |
| TGGTTAAAGG | 0.978 ± 0.024 |
| AAGTTTAGTA | 1.01 ± 0.029 |
| TATGAAGAGG | 0.994 ± 0.033 |
| GAGGAGAGGT | 1 ± 0.015 |
| TAATCTGGCG | 1.026 ± 0.0054 |
| GCTGAAATTT | 1.01 ± 0.056 |
| TTTGCGTAAG | 1.02 ± 0.033 |
| CAAACGGGGG | 0.983 ± 0.042 |
| TATCTTATTT | 0.9874 ± 0.0093 |
| ACATATTTTG | 1.01 ± 0.033 |
| TTGCGGAGGA | 1.01 ± 0.043 |
| AGTGGATTGT | 1.01 ± 0.046 |
| GAATTTTTTA | 0.999 ± 0.018 |
| CATGTAGGTG | 1.06 ± 0.048 |

| Sequence | switch fluorescence ratio |
| --- | --- |
| AATATGTAAT | 0.989 ± 0.021 |
| AAAATCGTGA | 1.009 ± 0.0097 |
| AGGTTGGATC | 0.995 ± 0.088 |
| ACTTTATCTA | 1.03 ± 0.061 |
| TCATTTCGGG | 0.991 ± 0.038 |
| ACAAATGGCA | 1.07 ± 0.037 |
| ATTCCTCTGG | 1.2 ± 0.018 |
| ACCGGGTTGC | 1.064 ± 0.008 |
| ACTGGCTGTT | 1.03 ± 0.035 |
| ACATGGGTT | 1.04 ± 0.05 |
| CAGGGAACGG | 1.05 ± 0.022 |
| AATTCTGGCT | 1.006 ± 0.0071 |
| TAAAGGGAGT | 1 ± 0.024 |
| TCGTACAGTT | 1.03 ± 0.02 |
| TAAAGTGTGC | 0.9727 ± 0.0042 |
| TGTTGTGGGT | 1.002 ± 0.0063 |
| TCTGGTGGTT | 0.981 ± 0.01 |
| TAGGGGTGAG | 1.04 ± 0.021 |
| TTTTAAGAAA | 3.11 ± 3 |
| GAATTAAATA | 1.02 ± 0.018 |
| GAAACGCTTT | 1.03 ± 0.057 |
| GGGGCACTGC | 1.008 ± 0.0024 |
| TTTTCGTCTC | 1.02 ± 0.019 |
